Measured values reported in patent US20120134993A1 (ZymoGenetics, published 2012).
Changes are numbered by the printed parent chain. Names and notes keep the numbering of the source.

B1: FGFR3IIIc(143-375)(S249W) Fc5, truncated FGFR3-Fc S249W (A2258F) (Fc fusion)
chain: DTGVDTGAPYWTRPERMDKKLLAVPAANTVRFRCPAAGNPTPSISWLKNGREFRGEHRIGGIKLRHQQWSLVMESVVPSDRGNYTCVVENKFGSIRQTYTLDVLERWPHRPILQAGLPANQTAVLGSDVEFHCKVYSDAQPHIQWLKHVEVNGSKVGPDGTPYVTVLKTAGANTTDKELEVLSLHNVTFEDAGEYTCLAGNSIGFSHHSAWLVVLPAEEELVEADEAGSVYAGEPKSSDKTHTCPPCPAPEAEGAPSVFLFPPKPKDTLMISRTPEVTCVVVDVSHEDPEVKFNWYVDGVEVHNAKTKPREEQYNSTYRVVSVLTVLHQDWLNGKEYKCKVSNKALPSSIEKTISKAKGQPREPQVYTLPPSRDELTKNQVSLTCLVKGFYPSDIAVEWESNGQPENNYKTTPPVLDSDGSFFLYSKLTVDKSRWQQGNVFSCSVMHEALHNHYTQKSLSLSPGK
notes: also called FGFR3 A2258F; FGFR3A2258F
B2: FGFR3IIIc(23-375) Fc5, full-length FGFR3-Fc (A2257F) (Fc fusion)
chain: ESLGTEQRVVGRAAEVPGPEPGQQEQLVFGSGDAVELSCPPPGGGPMGPTVWVKDGTGLVPSERVLVGPQRLQVLNASHEDSGAYSCRQRLTQRVLCHFSVRVTDAPSSGDDEDGEDEAEDTGVDTGAPYWTRPERMDKKLLAVPAANTVRFRCPAAGNPTPSISWLKNGREFRGEHRIGGIKLRHQQWSLVMESVVPSDRGNYTCVVENKFGSIRQTYTLDVLERSPHRPILQAGLPANQTAVLGSDVEFHCKVYSDAQPHIQWLKHVEVNGSKVGPDGTPYVTVLKTAGANTTDKELEVLSLHNVTFEDAGEYTCLAGNSIGFSHHSAWLVVLPAEEELVEADEAGSVYAGEPKSSDKTHTCPPCPAPEAEGAPSVFLFPPKPKDTLMISRTPEVTCVVVDVSHEDPEVKFNWYVDGVEVHNAKTKPREEQYNSTYRVVSVLTVLHQDWLNGKEYKCKVSNKALPSSIEKTISKAKGQPREPQVYTLPPSRDELTKNQVSLTCLVKGFYPSDIAVEWESNGQPENNYKTTPPVLDSDGSFFLYSKLTVDKSRWQQGNVFSCSVMHEALHNHYTQKSLSLSPGK
notes: also called FGFR3 A2257F; FGFR3IIIc(23_375) C(Fc5)
B3: FGFR3IIIc(23-375)(P250R) Fc5, full-length FGFR3-Fc P250R (A2259F) (Fc fusion)
chain: B2 chain with P228R
notes: also called FGFR3 A2259F; FGFR3IIIc(23_375) (P250R) C(Fc5)
B4: FGFR3IIIc(143-375) Fc5, truncated FGFR3-Fc (A2518F) (Fc fusion)
chain: B1 chain with W107S
notes: This is the form with the second and third Ig-like domains; also called FGFR3 A2518F; FGFR3IIIc(143_375) C(Fc5)
B5: FGFR3IIIc(143-375)(P250R) Fc5, truncated FGFR3-Fc P250R (A2519F) (Fc fusion)
chain: B1 chain with W107S, P108R
notes: also called FGFR3 A2519F; FGFR3IIIc(143_375) (P250R) C(Fc5)
B6: FGFR2alphaIIIc(145-377)(S252W) Fc5, truncated FGFR2-Fc S252W (A2560F) (Fc fusion)
chain: SENSNNKRAPYWTNTEKMEKRLHAVPAANTVKFRCPAGGNPMPTMRWLKNGKEFKQEHRIGGYKVRNQHWSLIMESVVPSDKGNYTCVVENEYGSINHTYHLDVVERWPHRPILQAGLPANASTVVGGDVEFVCKVYSDAQPHIQWIKHVEKNGSKYGPDGLPYLKVLKAAGVNTTDKEIEVLYIRNVTFEDAGEYTCLAGNSIGISFHSAWLTVLPAPGREKEITASPDYLEEPKSSDKTHTCPPCPAPEAEGAPSVFLFPPKPKDTLMISRTPEVTCVVVDVSHEDPEVKFNWYVDGVEVHNAKTKPREEQYNSTYRVVSVLTVLHQDWLNGKEYKCKVSNKALPSSIEKTISKAKGQPREPQVYTLPPSRDELTKNQVSLTCLVKGFYPSDIAVEWESNGQPENNYKTTPPVLDSDGSFFLYSKLTVDKSRWQQGNVFSCSVMHEALHNHYTQKSLSLSPGK
notes: also called FGFR2 A2560F; construct #1949

Target: recombinant human FGF1 (human, UniProt P05230 16-155)
Experiment: cell-based or functional assay

Chain of recombinant human FGF1 (P05230 16-155 limits assumed): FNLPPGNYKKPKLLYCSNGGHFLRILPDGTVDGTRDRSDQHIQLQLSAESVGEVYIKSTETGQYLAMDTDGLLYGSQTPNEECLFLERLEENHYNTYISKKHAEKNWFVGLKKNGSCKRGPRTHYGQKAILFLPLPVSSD

Binder	IC50, FGF-stimulated HUVEC proliferation (3H-thymidine)
B1	0.55 nM

Target: T1, recombinant human FGF4 (human, UniProt P08620 31-206, limits assumed)
T1 sequence (looked up): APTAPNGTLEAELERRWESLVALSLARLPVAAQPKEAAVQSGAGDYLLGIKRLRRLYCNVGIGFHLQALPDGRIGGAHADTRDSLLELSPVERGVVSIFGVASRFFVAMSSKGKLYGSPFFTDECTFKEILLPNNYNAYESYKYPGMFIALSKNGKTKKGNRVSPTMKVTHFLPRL
Experiment: cell-based or functional assay

Binder	IC50, FGF-stimulated HUVEC proliferation (3H-thymidine)
B1	0.68 nM

Target: T2, recombinant human FGF6 (human, UniProt P10767 83-208, limits assumed)
T2 sequence (looked up): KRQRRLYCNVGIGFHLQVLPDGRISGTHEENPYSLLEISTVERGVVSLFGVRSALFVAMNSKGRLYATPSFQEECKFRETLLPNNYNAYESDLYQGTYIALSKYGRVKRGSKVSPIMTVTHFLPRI
Experiment: cell-based or functional assay

Binder	IC50, FGF-stimulated HUVEC proliferation (3H-thymidine)
B1	0.78 nM

Target: recombinant human FGF2 (human, UniProt P09038 143-288, limits assumed)
Experiment: cell-based or functional assay

Chain of recombinant human FGF2 (P09038 143-288 limits assumed): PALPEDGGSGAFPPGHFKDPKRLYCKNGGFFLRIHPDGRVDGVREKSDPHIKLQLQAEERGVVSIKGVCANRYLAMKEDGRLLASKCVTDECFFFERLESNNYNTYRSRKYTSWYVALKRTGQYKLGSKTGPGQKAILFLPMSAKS

Binder	IC50, FGF-stimulated HUVEC proliferation (3H-thymidine)
B1	0.67 nM

Target: human FGF-9 (human, UniProt P31371 4-208)
Experiment: cell-based or functional assay

Binder	Proliferation IC50, FGF-9-stimulated HCO osteoblasts (3H-thymidine)
B2	1.19 nM
B3	1.14 nM
B4	0.77 nM
B1	0.75 nM
B5	0.99 nM

Target: T3, recombinant human FGF-17 (human, UniProt O60258 23-216)
T3 sequence (looked up): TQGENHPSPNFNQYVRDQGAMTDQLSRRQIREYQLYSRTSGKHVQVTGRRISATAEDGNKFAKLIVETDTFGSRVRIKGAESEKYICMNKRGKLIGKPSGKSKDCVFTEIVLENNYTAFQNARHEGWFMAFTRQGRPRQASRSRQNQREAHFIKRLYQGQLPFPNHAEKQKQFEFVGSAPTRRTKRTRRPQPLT
Experiment: direct binding ELISA, FGF-17 coated, FGFR-Fc titrated with heparin, anti-human Fc-HRP
Description: (§1) To determine the binding capability of FGFR-Fc to their respective ligands, an ELISA was run. Recombinant human FGF-8b or FGF-17 (R&D Systems) was plated at 100 nM on a Nunc Maxisorp 96-well plate for 1 h at room temperature with shaking. The plates were blocked with BLOTTO (Thermo Fisher Scientific, Rockford, Ill.) for 1 h at room temperature, then washed 5 times with ELISA C buffer (137 mM NaCl, 2.7 mM KCl, 7.2 mM Na₂HPO₄, 1.5 mM KH₂PO₄, 0.05% (v/w) polysorbate 20, pH 7.2). FGFR-Fcs were diluted to 100 nM with PBS/0.1×BLOTTO/10 ug/ml porcine heparin (Sigma, St. Louis, Mo.) and then 1:2 serial dilutions were made, ending at 0.10 nM. 100 μL of FGFR-Fcs were plated and incubated at 4° C. overnight. The following day, the plates were washed 5 times with ELISA C and then incubated with 2.5 μg/mL horseradish peroxidase-conjugated anti-human Fc antibody (Jackson ImmunoResearch Laboratories, West Grove, Pa.) for 1 h at room temperature with shaking. After 5 washes with ELISA C, 100 μL of OPD in citrate buffer (5 mg of o-phenylenediamine in 63 mM sodium citrate, 37 mM citric acid, pH 5.0, 0.03% H₂O₂) was added for detection. After 2-5 minutes, the reaction was stopped with 1 N H₂SO₄. The plates were read at 490 nm using SoftMaxPro software.

Binder	IC50
B2	20.1 nM
B3	45.3 nM
B6	223 nM
B4	3.79 nM
B1	1.31 nM
B5	37.6 nM

Target: T4, recombinant human FGF-8b (human, UniProt P55075-3 23-215)
T4 sequence (looked up): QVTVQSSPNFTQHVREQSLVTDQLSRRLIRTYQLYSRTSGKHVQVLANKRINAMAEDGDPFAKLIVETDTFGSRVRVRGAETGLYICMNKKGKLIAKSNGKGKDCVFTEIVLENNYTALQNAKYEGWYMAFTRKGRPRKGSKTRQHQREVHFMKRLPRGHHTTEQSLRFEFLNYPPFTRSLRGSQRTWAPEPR
Experiment: cell-based or functional assay

Binder	Proliferation IC50, FGF8b-stimulated LNCap cells (3H-thymidine)
B1	0.02 nM
B5	0.01 nM

Target: T2, recombinant human FGF6
Experiment: SPR (Biacore T100), FGFR-Fc captured on protein A, FGF6 analyte with heparin, bivalent analyte model (ka1)
Description: (§2) Materials and Methods: Binding kinetics and affinity studies were performed on a Biacore T100™ system (GE Healthcare, Piscataway, N.J.). Methods for the Biacore T100™ were programmed using Biacore T100™ Control Software, v 2.0. Since each of the FGF receptor molecules contained a human Fc domain, biotinylated protein-A (Thermo Fisher Scientific Inc, Rockford, Ill.) was used as a capture reagent for these studies. Biotinylated protein-A was diluted to concentration of 50 μg/mL in HBS-EP buffer (10 mM HEPES, 150 mM NaCl, 3 mM EDTA, 0.05% Surfactant P20; GE Healthcare, Piscataway, N.J.), and then captured to all four flow cells of a SA (streptavidin) sensor chip. A density of approximately 1100 RU was obtained for each flow cell. Each FGF receptor molecule was subsequently captured via protein-A onto a separate flow cell of the SA chip at an approximate density of 150-250 RU. The Biacore instrument measures the mass of protein bound to the sensor chip surface, and thus, capture of the receptor was verified for each cycle.
(§3) For kinetic binding studies, serial 1:5 dilutions of FGF ligands were prepared from 200 nM-0.06 nM. These samples were injected over the surface and allowed to specifically bind to the FGF receptor captured on the sensor chip. Injections of each ligand concentration were performed with an association time of 7 minutes and dissociation time of 15 minutes. Kinetic binding studies were performed with a flow rate of 50 μL/min. All binding experiments were performed at 25° C. in HBS-P buffer (10 mM HEPES, 150 mM NaCl, 0.05% Surfactant P20, pH 7.4; GE Healthcare, Piscataway, N.J.), containing 50 μg/mL heparin (Calbiochem, La Jolla, Calif.).
(§4) Between cycles, the flow cell was washed with 20 mM hydrochloric acid to regenerate the surface. This wash step removed both the captured FGF receptor and any bound FGF ligand from the protein-A surface, and allowed for the subsequent binding of the next test sample. Data was compiled using the Biacore T100™ Evaluation software (version 2.0). Data was processed by subtracting reference flow cell and blank injections. Baseline stability was assessed to ensure that the regeneration step provided a consistent binding surface throughout the sequence of injections. Duplicate injection curves were checked for reproducibility. Binding curves were globally fit to the bivalent analyte model.

Binder	kon
B2	400000 M⁻¹ s⁻¹
B3	300000 M⁻¹ s⁻¹
B4	200000 M⁻¹ s⁻¹
B1	300000 M⁻¹ s⁻¹
B5	200000 M⁻¹ s⁻¹

Target: T2, recombinant human FGF6
Experiment: SPR (Biacore T100), FGFR-Fc captured on protein A, FGF6 analyte with heparin, bivalent analyte model (KD1)
Description: as §2, §3, §4

Binder	Kd
B2	200 nM
B3	20 nM
B4	300 nM
B1	2 nM
B5	20 nM

Target: T2, recombinant human FGF6
Experiment: SPR (Biacore T100), FGFR-Fc captured on protein A, FGF6 analyte with heparin, bivalent analyte model (kd1)
Description: as §2, §3, §4

Binder	koff
B2	0.06 s⁻¹
B3	0.005 s⁻¹
B4	0.06 s⁻¹
B1	0.0006 s⁻¹
B5	0.004 s⁻¹

Target: T2, recombinant human FGF6
Experiment: SPR (Biacore T100), FGFR-Fc captured on protein A, FGF6 analyte with heparin, bivalent analyte model (KA1)
Description: as §2, §3, §4

Binder	Ka
B2	7e+06 M⁻¹
B3	6e+07 M⁻¹
B4	3e+06 M⁻¹
B1	5e+08 M⁻¹
B5	5e+07 M⁻¹

Target: T4, recombinant human FGF-8b
Experiment: direct binding ELISA, FGF-8b coated, FGFR-Fc titrated with heparin, anti-human Fc-HRP
Description: as §1

Binder	IC50
B2	41.9 nM
B3	52.6 nM
B4	16.4 nM
B1	10 nM
B5	9.7 nM
